In assay [1] the target is MexA Q93R variant (Pseudomonas aeruginosa) (UniProt P52477). Put plainly: SEC + other: negative-staining EM; Superdex 200 PC 3.2/30 in 10 mM Tris/HCl pH 7.4, 100 mM NaCl, 0.01% NaN3, 0.05% DDM; peak fraction stained with uranyl acetate, single-particle average image.
Assay [2] has as its target OprM C-terminal deletion variant OprM_(Δ473-485) (Pseudomonas aeruginosa) (UniProt Q51487). Briefly: BLI; OMF or MexB stabilised in biotinylated non-ionic amphipol (BNAPol) immobilised on streptavidin (SAX) biosensors, MexA as analyte (0-100 uM for OMFs, 0-200 uM for MexB); BLItz device, room temperature; 10 mM Tris/HCl pH 7.4, 100 mM NaCl, 0.01% NaN3, 0.05% DDM; Langmuir 1:1 fit.

For assay [3], the target named is TolC (outer membrane factor of E. coli) (Escherichia coli) (UniProt P02930). Described as above.
For assay [4], the target named is OprM wild type (outer membrane factor) (Pseudomonas aeruginosa) (UniProt Q51487). Described as above.
The target in assay [5] is MexB (RND inner membrane transporter) (Pseudomonas aeruginosa) (UniProt P52002). Described as above.
For assay [6], the target named is OprN (outer membrane factor) (Pseudomonas aeruginosa) (UniProt Q9I0Y7). Described as above.
The target in assay [7] is T1, OprM wild type (outer membrane factor) (Pseudomonas aeruginosa, UniProt Q51487 18-485).
T1 construct: OprM, outer membrane factor of MexA-MexB-OprM, Pseudomonas aeruginosa; Stabilised in biotinylated amphipol (BNAPol) for BLI and in MSP1D1/POPC nanodiscs for the tripartite complexes; also called OprMwt; OMF; source: expressed and purified from bacteria
T1 sequence: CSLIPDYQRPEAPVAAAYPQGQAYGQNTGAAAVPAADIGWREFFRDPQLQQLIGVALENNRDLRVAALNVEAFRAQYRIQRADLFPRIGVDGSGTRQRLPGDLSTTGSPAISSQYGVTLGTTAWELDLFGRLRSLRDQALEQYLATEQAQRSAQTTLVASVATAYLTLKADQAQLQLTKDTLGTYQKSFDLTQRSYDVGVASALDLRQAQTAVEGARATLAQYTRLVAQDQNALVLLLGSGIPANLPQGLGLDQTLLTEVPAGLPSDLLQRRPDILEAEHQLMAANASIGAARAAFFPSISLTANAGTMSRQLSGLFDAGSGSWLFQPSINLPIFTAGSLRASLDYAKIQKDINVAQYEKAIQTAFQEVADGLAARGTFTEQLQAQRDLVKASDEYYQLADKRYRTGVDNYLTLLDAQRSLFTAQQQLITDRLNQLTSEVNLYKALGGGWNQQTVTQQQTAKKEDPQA
The assay is described as above. The settings on record: both partners purified.

As to “MexA Q93R variant (from UniProt P52477 24-383) (natural protein)”, the stoichiometry N in assay [1] was determined as 6. Besides, the Kd in assay [2] was 25.7 µM; in assay [3], 17.8 µM; in assay [4] it was 32.9 µM; in assay [5] it was 17.4 µM; in assay [6], 26.9 µM. Besides, the off-rate (koff) is 0.00263 s⁻¹ in assay [2]; 0.00191 s⁻¹ in assay [3]; 0.00266 s⁻¹ in assay [4]; 0.003 s⁻¹ in assay [5]; 0.00238 s⁻¹ in assay [6]. The kon stood at 102 M⁻¹ s⁻¹ in assay [2]; 108 M⁻¹ s⁻¹ in assay [3]; 81 M⁻¹ s⁻¹ in assay [4]; 173 M⁻¹ s⁻¹ in assay [5]; 88 M⁻¹ s⁻¹ in assay [6].

“MexA wild type (periplasmic adaptor protein of MexA-MexB-OprM) (from UniProt P52477 24-383) (natural protein)”: the results for the Kd in assay [2], in assay [3] and in assay [6] were 44 µM, 45.8 µM and 20 µM, respectively. Further, the figures for the koff in assay [2], in assay [3] and in assay [6] were 0.00458 s⁻¹, 0.0058 s⁻¹ and 0.00358 s⁻¹, respectively. For the same molecule, the values for the kon in assay [2], in assay [3] and in assay [6] were 103 M⁻¹ s⁻¹, 127 M⁻¹ s⁻¹ and 177 M⁻¹ s⁻¹, respectively.

B1: MexA wild type (periplasmic adaptor protein of MexA-MexB-OprM) (natural protein)
chain: CGKSEAPPPAQTPEVGIVTLEAQTVTLNTELPGRTNAFRIAEVRPQVNGIILKRLFKEGSDVKAGQQLYQIDPATYEADYQSAQANLASTQEQAQRYKLLVADQAVSKQQYADANAAYLQSKAAVEQARINLRYTKVLSPISGRIGRSAVTEGALVTNGQANAMATVQQLDPIYVDVTQPSTALLRLRRELASGQLERAGDNAAKVSLKLEDGSQYPLEGRLEFSEVSVDEGTGSVTIRAVFPNPNNELLPGMFVHAQLQEGVKQKAILAPQQGVTRDLKGQATALVVNAQNKVELRVIKADRVIGDKWLVTEGLNAGDKIITEGLQFVQPGVEVKTVPAKNVASAQKADAAPAKTDSKG
notes: MexA, periplasmic adaptor protein of the MexA-MexB-OprM efflux system, Pseudomonas aeruginosa; Kept in 0.05% DDM; also called MexAwt; PAP; source: expressed and purified from bacteria
As to B1, in assay [7], binding was characterised by a dissociation constant (Kd) of 12 µM, the koff came to 0.00215 s⁻¹ and the kon was found to be 180 M⁻¹ s⁻¹.

What is called stoichiometry N is the number of molecules, sites or subunits per partner or assembly. The term Kd denotes the constant that tells how readily two partners part at equilibrium. High values mean a looser complex, low ones a tighter complex. What is called koff is the rate constant with which the complex falls apart. One may read the kon as the rate constant with which the complex forms.

The values are drawn from publication PMC8868134, “Molecular Determinants for OMF Selectivity in Tripartite RND Multidrug Efflux Systems” (Antibiotics, 2022).
